Results published in PMC5453243.

Substrate: CCn1c(=NN=c2sc3cc(S(=O)(=O)O)ccc3n2CC)sc2cc(S(=O)(=O)O)ccc21
Experiment: purified protein
Details: 1 mM H2O2, 50 mM KH2PO4 pH 6.5, 30 °C

Protein | Vmax | Km (ABTS 0.005–10 mM) | Vmax (ABTS 0.005–10 mM)
soluble HRP P. pastoris (Armoracia rusticana) (protein) QLTPTFYDNSCPNVSNIVRDTIVNELRSDPRIAASILRLHFHDCFVNGCDASILLDNTTSFRTEKDAFGNANSARGFPVIDRMKAAVESACPRTVSCADLLTIAAQQSVTLAGGPSWRVPLGRRDSLQAFLDLANANLPAPFFTLPQLKDSFRNVGLNRSSDLVALSGGHTFGKNQCRFIMDRLYNFSNTGLPDPTLNTTYLQTLRGLCPLNGNLSALVDFDLRTPTIFDNKYYVNLEEQKGLIQSDQELFSSPNATDTIPLVRSFANSTQTFFNAFVEAMDRMGNITPLTGTQGQIRLNCRVVNSNS | 152 µmol/min/mg |  | 
refolded HRP E. coli (HRP C1A refolded from inclusion bodies) (Armoracia rusticana) (protein) QLTPTFYDNSCPNVSNIVRDTIVNELRSDPRIAASILRLHFHDCFVNGCDASILLDNTTSFRTEKDAFGNANSARGFPVIDRMKAAVESACPRTVSCADLLTIAAQQSVTLAGGPSWRVPLGRRDSLQAFLDLANANLPAPFFTLPQLKDSFRNVGLNRSSDLVALSGGHTFGKNQCRFIMDRLYNFSNTGLPDPTLNTTYLQTLRGLCPLNGNLSALVDFDLRTPTIFDNKYYVNLEEQKGLIQSDQELFSSPNATDTIPLVRSFANSTQTFFNAFVEAMDRMGNITPLTGTQGQIRLNCRVVNSNS |  | 1250 ± 100 µM | 62.5 µmol/min/mg
